In the nanobody polyreactivity screen of Harvey et al. (2022):

Assay: yeast display, Sf9 membrane polyspecificity reagent, FACS + sequencing; frameworks hold sequencing errors
Summary of the method: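 Sorting gates, low and high (top ~1%), were placed on anti-HA fluorescence to track expression and on streptavidin fluorescence to track reagent binding. A clone's polyreactivity label is taken from the gate it came out of. The reagent was 10% biotinylated, detergent-solubilized Sf9 membrane, applied for 1 hour at 4 °C to galactose-induced yeast display cells.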

Sequence | polyreactivity (PSR sort gate)
QVQLVESGGGLVQAGGSLRLSGAASGFIFSYYAMGWYRQAPGKERELVAAITSGGSTNYADSVKGRFTISRDNAKNTVYLQMNSLKPEDTAVYYCNALYHWGYPHEYNYWGQGTQVTVSS | low polyreactivity
QVQLVESGVGLVQAGGSLRLSCAASGSTFSIYALGWYRQAPGKERELVAAISWDSDDTYYADSVNGRFTISRDNAKNTVYLQMNSLKPEDTAVYYCAADRLDRYYYWGQGTQVTVSS | low polyreactivity
QVQLVESGGGLVQAGGSLRLSCAASGRTFISNAMGWYRQAPVKERELVAAISRSGGSTYYADSVKGRFTISRDNAKNTVYLQMNSLKPEDTAVYYCAATGKQWRTSYDYWGQGTQVTVSS | high polyreactivity
QVQLVESGGGLVQAGGSLRLSCAASGRIFYGYAMGWYRQAPGKERELVAAISSGGITYYADSVKGRFTISRDNAKNTVYLQMNSLKPEDTAVYYCAATVLGDYEYWGQGTQVTVSS | low polyreactivity
QVQLVESGGGLVQAGGSLRLSCAASGRTFQRYTMGWYRQAPGKERELVASISRSGGSTYYADSVKGRFTISRDNAKNTVYLQMNSLKPEDTAVYYCATRSLFWNRNHYRVSSPVLFDYWGQGTQVTVSS | high polyreactivity
QVQLVESGGGLVQAGGSLRLSCAASGLIFKRNAMGWYRQAPGKERELVATISGSGGSTYYADSVKGRFTISRDNAKNTFYLQMNSLKPEDTAVYYCAAEASSVSYPYEYEYWGQGTQVTVSS | high polyreactivity
QVQLVESGGGLVQAGGSLRLSCAASGRIFFVNAMGWYRQAPGKERELVAAISSGGSTNYADSVKGRFTISRDNAKNTVYLQMNSLKPEDTAVYYCASSHYRYGTQGYDYWGQGTQVTVSS | low polyreactivity
QVQLVESGGGLVQAGGSLRLRCAASGGIFSIYAMGWYRQAPGKERELVAAISTSGGSTYYADSVKARFTISRDNAKNTVYLQMNSLKPEDTAVYYCNARSQQWWLSRYNYWGQGTQVTVSS | high polyreactivity
QVQLVESGGGLVQAGGSLRLICAASGSTFEHYAMGWYRPAPGKERELVAAITRRGGSTYYADSVKGRFTISRDNAKNTVYLQMNSLKPEDTAVYDCNTDLRYSYYLPGYDYWGQGPQVTVSS | high polyreactivity
QVQLVESGGGLVQAGGRLRLSCAASGSIFDRYAMGWYRQAPGKERELVAAITRSGGSTYYADSVKGRFTISRDNAKNTVYLQMNSLKPEDTAVYYCNKVYPPRSIPYDFCGQGTQVTVSS | low polyreactivity
QVQLVESGAGLVQAGGSLRLSCAASGSTFYFNGMGWYRQAPGKERELVAAISSTGNTYYADSVKGRFTISRDNAKNTVYLQMNSLKPEDTAVNDCLAGSSEAGYYWGHGTQVTVSS | high polyreactivity
QVQRVESGGGLVQAGGSLRLSCAASGRTFDSYAMGWYRPAPGKERELVAVITRGVRTYYADSVKGRFTISRDNAKNTVYLQMNSLKPEDTAVYYCAKERYNANYDTSLYDYWGQGTQVTVSS | low polyreactivity
QVQLVESGGGLVQAGGSLSLSCAASGRIFTYYAMGWYRQAPGKERELVAAINWGVVTTYYADSVKGRFTISRDNAKNTVYLQMNSLKPEDTAVYYCAADWFAANYYVNPVSALDYWGQGTQVTVSS | low polyreactivity
QVQLVESGGGLVQAGGSLRLSCAASGSIFRGYTMGWYRQATGKERELVATISWSGGSTYYADSVKGRFTISRDNAKNTVYLQMNCLKPEDTAVYYCAAVWYLGIPYDYWGQGTQVTVSS | high polyreactivity
QVQLVESGGGLVQAGGSLRLSCAASGYTFYQYAMGWYRQAPGKESELVADISRSGVSTYYADSVKGRFTISRDNAKNTVYLQMNSLKPEDTAVYYCAARRPFYRQLDYWGQGTQVTVSS | high polyreactivity
QVQLVESGGGLVQAGGSLRLSCAASGRYFGYNAMGWYRQAPGKERELVAAITGSGGSTYYADSVKGRFTISLDNAKHTVYLQIISLKPEDTAVYYCAADRFYHSAEYDYWGQGTQVTVSS | low polyreactivity

Sequence | polyreactivity (PSR sort gate)
QVQLVESGGGLVQAGGSLRLSCAASGSTFATYTMGWYRQAPGKERELVAAISVSGSRTYYADSVKGRFTISRDNAKNTVYLQMNSLKPEDTAVYYCNADPPVKLYLYDYWGQGTQVTVSS | high polyreactivity
QVQLEESGGGLDQAGGILRLSFAASGSTIGGYAMGWYSQATGNERELVAAITRSGGRTYYADSVKGRFTISRDNGKNTVYLQMNSLKPEDTAVYYCATLVTNGRYDSWGQGTQVTVSS | high polyreactivity
QVQLVESGGGLVQAGGSLRLSCAASGSTFVRNAMGWYRQAPGKERELVAAITSSGGSTYYADSVKGRFTISRDNAKNTVYLQMNSLKPEDTAVYYCNAELGSDTANYDYWGQGTQVTVSS | low polyreactivity
QVQLVESGGGLVQAGGSLRLSCVASGRTFFRYAMGWYRQAPGKERELVAVITRGGSTYYADSVKGRFTISRDNAKNTVYLQMNSLKPEDTAVYYCNADGRVQRKYDYWGQGTQVTVSS | high polyreactivity
QVQLVESGGGLVQAGGSLRLSCASSGSTFLAYAMGWDRQAPGKERELVAAISSRGSRTYYADSLKGRCTISRDTAKNTVYLQMNSLKPEDTAVYYCAARYPSGYYYWGQGTQVTVSS | high polyreactivity
QVQLVESGGGLVQAGGSLRLSCAASGIISRVYAMGWYRQAPGKERELVAAITRRGSTTYYADSVKGRFTISRDNAKNTVYLQMNSLKPEDTAVYYCAALARYGPRYRGDYWGQGTQVTVSS | high polyreactivity
QVQLVESGGGLVQAGGSLRLSCAASGRTLGGYAMGWYRQAPGKERELVAVITWNGGSTYADSVKGRFTISRDNAKNTVYLQMNSLKPEDTAVYYCAADRFNKPYYYWGQGTQVTVSS | high polyreactivity
QVQLVESGGGLVQAGGSLRLSCAASGRIFRYYAMGWYRQAPGKERELVAAIRWTAGSTYYADSVKGRFTISRDNAKNTVYLQMNSLKPEDTAVYYCATDVWKYGRYEYWGQGTLVTVSS | low polyreactivity
QVQLVESGGGLVQAGGSLRLSCAASGLTFSLYALGWYRQAPGKERELVAAISWTGGSTYYADSVKGRFSISRDNAKNTVYLQMKSLKPEDTAVDYCNARYTLFARYGYDYWGQGTQVTVSS | low polyreactivity
QVQLVESGGGLVQAGGSLRLSCAASGGILWGNGMGWYRQAPGKERELVAAISTGGSTNYADSVKGRFTISRDNAKNTVYLQMNSLKPEETAVYYCAGGAGGVRYSFYWNDYWGQGTQVTVSS | high polyreactivity
QVQLVESGGGLVQAGGSLRLSCAASGSIFVGYAMGWYRQAPGKERELVATISSSATSTYYADSVKGRFTISRDNATNTVYLQMNSLKPEDTAVYSCAVERDYGWPIYIRWHFDYWGQGTQVTVAS | low polyreactivity
QVQLVESGGGLVQAGGSLRVSCAASGSTFNINAMGWYREAPGKERELVAAISSGGSTNYADSVKGRFTISRDNAKNTVYLQMNSLKPEDTAVYYCNADFILSGWWGIVGYDYWGQGTQVTVSS | low polyreactivity
QVQLVDSRGGLLQAGGSLRLSCAASGSIISRNAKGWYRQAPGKESELVAAITRSGGSTYYADSVKGRFTISRENAKNTVYLQRNRLKPEDTAVYYCATPIFSARRYTGYVKYDYWAQGTQVTVSS | high polyreactivity
QVQLVESGGGLVQAGGSLRLSCAASGFTFSRNAMGWYRQAPGKERELVAAITWSGGRTYYADSVKGRFTISRDNAKNTVYLQMNSLKPEDTAVYYCAARKYHLRSAYDYWGQGTQVTVSS | low polyreactivity
QVQLVESWGGLVQAGGSLRLSCAASGSTFYAYAMGWYRQAPGKERELVAAIDSGGSTYYADSVKGRFTISRDNAKNTVYLQMNSLIPEDTAVYYCAVRHRYTRAYWGRDYWGQGTQVTVSS | low polyreactivity
QVQLVESGGGLVQAGGSLRVSCAASGRILSRNAMGWYRQAPGKERELVAAISISGGSTYYADSVKGRFTISRDNAKNTVYLQMNSLKPEDTAVYYCNTAYYGSRKYDYWGQGTQVTVSS | high polyreactivity
